Results from patent publication US20220396632A1 (VERSEAU THERAPEUTICS, published 2022).

T1: Biotin sY48 PSGL-1(42-62) peptide (human, sulfotyrosine at Y48; C-terminal Lys-biotin)
T1 construct: also called sY48S
T1 peptide: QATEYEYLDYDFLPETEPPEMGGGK

T2: Biotin Y46,48,51(SO3) PSGL-1(42-62) peptide (human, sulfotyrosine at Y46, Y48 and Y51; C-terminal Lys-biotin)
T2 construct: also called fully sulfated N-terminal PSGL-1 peptide
T2 peptide: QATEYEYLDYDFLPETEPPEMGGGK

T3: Biotin PSGL-1(42-62) peptide, unmodified (human, C-terminal Lys-biotin)
T3 construct: Residues 42-62 followed by GGGK-biotin; also called WT; wild-type
T3 peptide: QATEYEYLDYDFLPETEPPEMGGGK

T4: Biotin sY51 PSGL-1(42-62) peptide (human, sulfotyrosine at Y51; C-terminal Lys-biotin)
T4 construct: also called Y51(SO3) PSGL-1(42-62)
T4 peptide: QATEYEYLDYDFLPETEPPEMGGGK

T5: Biotin sY46 PSGL-1(42-62) peptide (human, sulfotyrosine at Y46; C-terminal Lys-biotin)
T5 peptide: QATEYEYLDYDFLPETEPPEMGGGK

T6: Recombinant human PSGL-1(ECD)-hFc1 (R&D Systems, Cat. 3345-PS) (human, UniProt Q14242 42-305)
T6 construct: Bought; Gln42-Val295 counted on AAC50061; also called PSGL-1-Fc; PSGL-1-hFc1 chimera; not shown: human IgG1 Fc, Pro100-Lys330
T6 sequence: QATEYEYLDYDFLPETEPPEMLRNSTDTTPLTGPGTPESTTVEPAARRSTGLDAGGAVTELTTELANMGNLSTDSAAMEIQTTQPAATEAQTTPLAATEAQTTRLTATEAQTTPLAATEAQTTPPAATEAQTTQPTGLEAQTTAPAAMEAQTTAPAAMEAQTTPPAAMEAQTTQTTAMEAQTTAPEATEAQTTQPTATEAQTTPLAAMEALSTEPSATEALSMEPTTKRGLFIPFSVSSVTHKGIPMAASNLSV

B1: 18F02 (antibody, V domains shown)
VH: QVQLQQPGAELVKPGASVKLSCKASGYTFTSYWMHWVKQRPGQGLEWIGMIHPNSGRTNYNEKFKSKATLTVDKSSSTAYMQLSSLTSEDSAVYYCARSDYWGQGTTLTVSS
VL: DIVMTQAAFSNPVTLGTSASISCRSSKSLLHSDGITYLYWFLQRPGQSPQLLIYRMSNLASGVPDRFSGSGSGTDFTLRISRVEAEDVGVYYCAQMLEFPRTFGGGTKLEIK
notes: From mouse immunisation; only variable domains given
B2: 20I15 (antibody, V domains shown)
VH: EVKLVESGGGLVQPGGSLSLSCAASGFTFTDYYMSWVRQPPGKALEWLGFIRNKANGYTTEYSASVKGRFTISRDNSQSILYLQMNALRAEDSATYYCARTYLRRGYFDVWGTGTTVTVSS
VL: DIVLTQSPASLAVSLGQRATISCRASKSVSTSGYSYMHWFQQKPGQPPKLLIYLASNLESGVPARFSGSGSGTDFTLNIHPVEEEDAATYYCQHSRELPLTFGAGTKLELK
notes: From mouse immunisation; only variable domains given; also called 20115
B3: 18K07 (antibody, V domains shown)
VH: QIQLVQSGPELKKPGETVKISCEASGYTFTTYGMNWVKQAPGKGLKWMGWINTYSGVPTYADDFQGRFAFSVETSATTAYLQINNLKNEDAATYFCARSDDTYYGFAYWGQGTLVTVSA
VL: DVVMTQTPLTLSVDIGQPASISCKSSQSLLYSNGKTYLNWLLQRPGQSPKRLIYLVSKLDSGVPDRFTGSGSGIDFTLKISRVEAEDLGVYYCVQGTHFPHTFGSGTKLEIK
notes: as for B1
B4: 03D07 (antibody, IgG4, V domains shown)
VH: EVKLLESGGGLVQPGGSLRLSCAASGFTFSSYALSWVRQAPGKGLEWVSAISGSGGNTYYADSVKGRFTISRDNSKNTLYLQMNSLRAEDTAVYYCAKVVGATNYWGQGTLVTVSS
VL: DIVMTQTPLSLPVTLGQPASISCRSSQSLVYSDGHTYLSWFHQRPGQSPRRLIYKVSIRDSGVPDRFSGSGSGTDFTLKISRVEAEDVGVYYCMQRLQIPLTFGGGTKVEIK
B5: 16L15 (antibody, V domains shown)
VH: DVKLVESGGGLVKLGGSLKLSCAASGFTFSSYYMSWVRQTPEKRLEWVATISNGGGSTYYPDSVKDRFTISRDNAKNTLYLQMSSLNSEDTAVYYCAKPLYYSNPWFAYWGQGTLVTVSA
VL: DVLLTQTPLSLPVSLGDQASISCRSSQSIVHSNGNTYLEWYLQKPGQSPKLLIYKVSNRFSGVPDRFSGSGSGTDFTLKISRVEAEDLGVYYCFQGSHVPRTFGGGTKLEIK
notes: as for B1
B6: 19I01 (antibody, V domains shown)
VH: EVQLVESGGGLVKPGGSRKLSCAASGFTFSDYGMHWVRQAPEKGLEWVAYISSGSSTIYYADTVKGRFTISRDNAKNTLFLQMTSLRSEDTAMYYCARGVDGYWGQGTTLTVSS
VL: DVVMTQTPLSLPVSLGDQASISCRSSQSLVHSNGNTYLHWYLQKPGQSPKFLIYKVSNRFSGVPDRFSGSGSGTDFTLKISRVEAEDLGVYFCSQTTHVPLTFGAGTKLELK
notes: From mouse immunisation; only variable domains given; also called 19101
B7: 5E12 (antibody, V domains shown)
VH: EIQLQQSGAELVRPGASVKLSCTASGFNIKDDYIHWVKQRPEQGLEWIGRIDPANGNTKSAPKFQDKATITADTSSNTAYLHLSSLTSEDTAVYYCSIRFAYWGQGTLVTVSA
VL: DVVMTQTPLSLSVSLGDQASISCRSSQSLVYRNGDTYLHWFLQKPGQSPKLLIYKVSNRFSGVPDRFSGSGSGTDFTLKISRVEAEDLGIYFCSQNTHVPYTFGGGTKLEIK
notes: Mouse hybridoma mAb; only variable domains given
B8: 16E17 (antibody, V domains shown)
VH: QIQLVQSGPELKKPGETVKISCKASGYAFTTYGMSWVKQAPGKGLKWMGWINTYSGVPKYADDFKGRFAFSLETSASTAYLHINNLKNEDTATYFCGRHYYGSSYFDYWGQGTTLTVSS
VL: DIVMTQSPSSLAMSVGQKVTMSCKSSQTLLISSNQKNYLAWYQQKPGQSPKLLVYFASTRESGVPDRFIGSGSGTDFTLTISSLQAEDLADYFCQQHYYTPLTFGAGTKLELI
notes: as for B1
B9: 19L04 (antibody, IgG4, V domains shown)
VH: QIQLVQSGPELKKPGETVKISCKASGYTFTTYGMSWVKQAPGKGLKWMGWINTYSGVPTYADDFKGRFAFSLETSASTAYLQINNLKIEDTATYFCARHYYGSHYFDYWGQGTTLTVSS
VL: DIMMTQSPSSLAMSVGQKVTLRCKSSQSLLNSSNQKNYLAWYQQKPGQSPKLLVYFASTRESGVPVRFIGSGSGTDFTLTISSMQAEDLADYFCQQHYFSPLTFGAGTKLELK
notes: as for B1
B10: 19N05 (antibody, V domains shown)
VH: QIQLVQSGPELKKPGETVKISCKASGYTFTTYGMSWVKQAPGKGLKWMGWINTYSGVPTFADDFKGRFAFSLETSASTAYLQINNLKNEDTATFFCARNYYGNHYFDYWGQGTTLTVSS
VL: DVQITQSPSYLAASPGETISINCRASNNINKYLAWYQEKPGKTNKLLIYSGSTLQSGIPSRFSGSGSGTDFTLTISSLEPEDFAMYHCQQHNYYPLTFGAGTKLELK
notes: as for B1

Legend:
[1] = biological target: T7, Human complement C4 protein (Millipore Sigma, Cat. 204886) (human, UniProt P0C0L4 20-675; P0C0L4 680-1446; P0C0L4 1454-1744, limits assumed, natural sulfotyrosines); test: ELISA, 50 nM mAb on plate-bound protein
T7 construct: mature
Procedure: Recombinant PSGL-1-hFc1 chimera protein consisting of PSGL-1's extracellular domain (ECD) served as a positive control. […] Primary antibody was added (25 ul per well) in duplicate at 50 nM in assay buffer (blocking buffer containing 0.05% Tween®20) into test and control (just blocked) wells and the plate incubated for 45 min at 37° C.

[2] = biological target: T1, Biotin sY48 PSGL-1(42-62) peptide; test: ELISA, plate-bound mAb captures biotin peptide
Procedure: (§1) Two ELISA methods were performed. One procedure detected mAb binding to its plate-immobilized target and the other measured the immobilized antibody's ability to capture biotinylated PSGL-1₄₂₋₆₂. […] The plate was incubated for 45 min at 37° C. Plates were washed 3 times with wash buffer (PBS containing 0.05% tween 20, pH 7.4) and a single concentration (2 to 500 nM) or serially diluted (0.002-100 nM) anti-PSGL-1 mAb was added (25 ul/well) in assay buffer into appropriate wells. The plate was incubated for 45 min at 37° C., washed 3 times, and an appropriate HRP-conjugated secondary antibody added (25 ul/well) (HRP goat anti-mouse or anti-human IgG). After 45 min incubation at 37° C., the plate was washed, and antibody bound to plate-immobilized target was determined at A450 nm using HRP substrate (3,3′,5,5′-etramethylbenzidine (TMB)). For each antibody, duplicate values were averaged and assay background was subtracted. Except for the following, ELISAs involving plate-immobilized mAb capturing of biotinylated PSGL-1₄₂₋₆₂ peptides was performed in the same manner as described above: 3 ug/mL/25 ul per well of mAb was coated directly onto microtiter plate wells; biotinylated unmodified or sulfotyrosine PSGL-1₄₂₋₆₂ was serially diluted (3 nM-3 uM) into appropriate wells, and antibody-bound peptide was detected using HRP-streptavidin (Jackson Immunoresearch, Cat. #016-030-084).

[3] = biological target: T2, Biotin Y46,48,51(SO3) PSGL-1(42-62) …; test: ELISA, plate-bound target
Procedure: as §1

[4] = biological target: T3, Biotin PSGL-1(42-62) peptide, unmodified; test: ELISA, plate-bound target
Procedure: as §1

[5] = biological target: T4, Biotin sY51 PSGL-1(42-62) peptide; test: capture ELISA; against 3 x sY peptide
Procedure: as §1

[6] = biological target: T2, Biotin Y46,48,51(SO3) PSGL-1(42-62) …; test: capture ELISA; against 3 x sY peptide
Procedure: as §1

[7] = biological target: T1, Biotin sY48 PSGL-1(42-62) peptide; test: capture ELISA; against 3 x sY peptide
Procedure: as §1

[8] = biological target: T5, Biotin sY46 PSGL-1(42-62) peptide; test: capture ELISA; against 3 x sY peptide
Procedure: as §1

[9] = biological target: T6, Recombinant human PSGL-1(ECD)-hFc1 (R&D …); test: Octet tandem; competitor 19J23
Procedure: (§2) Antibody binning was performed by ForteBio Octet® using a tandem assay format, with anti-human IgG biosensor-immobilized PSGL-1(ECD)-hFc1 protein, binding of competitor mAb followed by analyte antibody. As competition controls, the same antibody was competed against itself, and mAb competition was performed bidirectionally.
(§3) Antibody binning by tandem octet was performed by immobilizing 10 ug/mL PSGL-1(ECD)-hFc1 (R&D Systems, Cat. #3345-PS) in PBS, pH 7.4, onto anti-human IgG capture biosensors (ForteBio, Cat. #18-5060), binding of 100 nM competitor antibody for 300 sec., followed by binding of 100 nM of analyte mAb for 300 s in kinetic buffer (0.1% BSA in PBS containing 0.02% tween 20 and 0.05% sodium azide, pH 7.4). Synagis (Johnson et al. (1997) J. Infect. Dis. 176:1215-1224) served as a negative control mAb for competition. An Fc quench step (0.25 mg/mL human IgG Fcl; BioXcell, Cat. #BE0096, in kinetic buffer) was included when human mAbs were tested to prevent high background from the antibodies binding to the anti-human IgG biosensor. Biosensor regeneration buffer consisted of 10 mM glycine, pH 2.0.

[10] = biological target: T6, Recombinant human PSGL-1(ECD)-hFc1 (R&D …); test: Octet tandem; competitor 18F17
Procedure: as §2, §3

[11] = biological target: T6, Recombinant human PSGL-1(ECD)-hFc1 (R&D …); test: Octet tandem; competitor 19L04
Procedure: as §2, §3

[12] = biological target: T6, Recombinant human PSGL-1(ECD)-hFc1 (R&D …); test: Octet tandem; competitor 20G13
Procedure: as §2, §3

[13] = biological target: T6, Recombinant human PSGL-1(ECD)-hFc1 (R&D …); test: Octet tandem; competitor 18K07
Procedure: as §2, §3

T7 sequence (P0C0L4 20-675 limits assumed, form in doubt, chain 1 of 3): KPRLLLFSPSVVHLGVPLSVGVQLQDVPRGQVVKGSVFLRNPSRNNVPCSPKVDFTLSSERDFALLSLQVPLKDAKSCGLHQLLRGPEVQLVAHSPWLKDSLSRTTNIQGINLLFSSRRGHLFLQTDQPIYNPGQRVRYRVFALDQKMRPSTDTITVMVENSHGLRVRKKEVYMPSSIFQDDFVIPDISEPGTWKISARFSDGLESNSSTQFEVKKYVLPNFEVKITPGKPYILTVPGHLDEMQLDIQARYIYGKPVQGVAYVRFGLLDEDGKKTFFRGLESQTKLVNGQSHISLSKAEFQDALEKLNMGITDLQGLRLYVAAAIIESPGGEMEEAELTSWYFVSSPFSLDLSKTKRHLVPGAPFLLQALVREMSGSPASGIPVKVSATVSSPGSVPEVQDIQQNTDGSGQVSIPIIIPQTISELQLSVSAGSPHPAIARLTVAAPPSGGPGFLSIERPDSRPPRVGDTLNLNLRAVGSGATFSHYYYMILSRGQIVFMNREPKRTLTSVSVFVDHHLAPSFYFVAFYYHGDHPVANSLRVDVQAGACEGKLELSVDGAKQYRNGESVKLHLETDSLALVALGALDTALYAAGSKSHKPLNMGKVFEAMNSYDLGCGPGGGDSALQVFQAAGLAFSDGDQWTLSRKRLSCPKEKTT
T7 sequence (P0C0L4 680-1446 limits assumed, form in doubt, chain 2 of 3): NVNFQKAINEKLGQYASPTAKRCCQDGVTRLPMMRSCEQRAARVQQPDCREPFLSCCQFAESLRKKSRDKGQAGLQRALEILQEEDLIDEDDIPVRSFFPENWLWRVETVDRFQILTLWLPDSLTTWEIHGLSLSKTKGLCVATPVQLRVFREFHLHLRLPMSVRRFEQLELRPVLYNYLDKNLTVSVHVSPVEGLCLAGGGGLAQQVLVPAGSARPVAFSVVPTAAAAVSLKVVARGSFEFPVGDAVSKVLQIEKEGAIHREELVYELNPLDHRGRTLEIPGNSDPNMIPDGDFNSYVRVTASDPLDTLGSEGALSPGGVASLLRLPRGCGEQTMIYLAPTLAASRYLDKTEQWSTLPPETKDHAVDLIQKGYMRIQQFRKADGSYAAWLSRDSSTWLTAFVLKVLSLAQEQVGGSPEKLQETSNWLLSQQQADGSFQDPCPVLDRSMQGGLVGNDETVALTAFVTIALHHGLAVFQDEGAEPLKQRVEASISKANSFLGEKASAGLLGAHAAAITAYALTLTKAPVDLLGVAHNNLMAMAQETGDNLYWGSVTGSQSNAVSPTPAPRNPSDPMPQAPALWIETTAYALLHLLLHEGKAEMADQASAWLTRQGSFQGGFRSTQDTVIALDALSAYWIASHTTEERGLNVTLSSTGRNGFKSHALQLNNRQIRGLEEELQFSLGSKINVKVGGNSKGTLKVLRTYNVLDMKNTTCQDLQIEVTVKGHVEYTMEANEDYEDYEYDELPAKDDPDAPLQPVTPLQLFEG
T7 sequence (P0C0L4 1454-1744 limits assumed, form in doubt, chain 3 of 3): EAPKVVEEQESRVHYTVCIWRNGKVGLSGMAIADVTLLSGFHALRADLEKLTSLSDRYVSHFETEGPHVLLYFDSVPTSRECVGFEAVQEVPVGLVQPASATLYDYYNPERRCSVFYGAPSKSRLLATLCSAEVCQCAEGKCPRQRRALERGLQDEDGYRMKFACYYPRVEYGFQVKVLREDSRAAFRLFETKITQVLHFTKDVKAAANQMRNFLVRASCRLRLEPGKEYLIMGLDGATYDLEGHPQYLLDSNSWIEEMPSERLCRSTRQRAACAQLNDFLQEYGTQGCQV

| Binder | % of binding to PSGL-1(ECD)-hFc1 [1] [%] | % binding of analyte mAb [9] [%] | % binding of analyte mAb [10] [%] | % binding of analyte mAb [11] [%] | % binding of analyte mAb [12] [%] | % binding of analyte mAb [13] [%] | also measured |
| --- | --- | --- | --- | --- | --- | --- | --- |
| B1 | ≤ 10 |  |  |  |  |  |  |
| B2 |  |  |  |  |  |  | EC50 [2]: ~3000 nM; EC50 [3]: 0.62 nM; EC50 [4]: ~30 nM; EC50/EC50 3x(SO3)Y [5]: ~10 fold; EC50/EC50 3x(SO3)Y [6]: 1 fold; EC50/EC50 3x(SO3)Y [7]: ~10 fold; EC50/EC50 3x(SO3)Y [8]: ~10 fold |
| B3 |  | 92.9 | 91.4 | 0 | 0 | 35.2 |  |
| B4 |  |  |  |  |  |  | EC50 [2]: > 3000 nM; EC50 [3]: 0.13 nM; EC50 [4]: > 20 nM; EC50/EC50 3x(SO3)Y [5]: ~5 fold; EC50/EC50 3x(SO3)Y [6]: 1 fold; EC50/EC50 3x(SO3)Y [7]: > 100 fold; EC50/EC50 3x(SO3)Y [8]: 25 fold |
| B5 | ≤ 10 |  |  |  |  |  |  |
| B6 | ≤ 10 |  |  |  |  |  |  |
| B7 | ≤ 10 |  |  |  |  |  |  |
| B8 |  | 103 | 93.8 | 0 | 32.4 | 67.4 |  |
| B9 |  | 104 | 81.4 | 35.9 | 0 | 50.5 |  |
| B10 |  | 125 | 65.3 | 39.4 | 0 | 0 |  |
